Source: the DeepSol protein solubility set

experiment: soluble on expression in E. coli; label from the status in PepcDB or PDB records

Row | Sequence | soluble on expression in E. coli
1 | MGSDKIHHHHHHMNMKVLLVNPVGEWGGAEKIFFLVSQIFQKTGFELYVLLGSRGILYEKLRNLNFNISIMNFPDLSENSIVIAGRRFQLPHHLLKNLRKIKILSKKFWDYLRILKPDIIYLNNLRSLVLYYETVRTYGKPCEAVVIWHEHGYQRSIIRQLILDKIYLKFVDAVICVSKHLANKHLKDVQQKLYVVHNGIPDELNAIEKENVRYEYNNNKVLIIHPAFITYWKGQHLALKAVDLLVKRGVRNFEIWFFGEPRSKQDYKYFKKLKQFVRSKNLEKQVFFKGFSANIIDEMLKADIVISTSVEDDPFPTILLEASMIGKPVVTTDAGGSGEIVKNGETGFVVKKDKRELASALCELIQNKELRDVFSKNARDRFLKEFSILAFEKRFLETLESILRR | not soluble
2 | GSLSRLSYKSNNNSFVLGIGISVPGEPISQQSLKDSISNDFSDKAETNEKVKRIFEQSQIKTRHLVRDYTKPENSIKFRHLETITDVNNQFKKVVPDLAQQACLRALKDWGGDKGDITHIVSVTSTGIIIPDVNFKLIDLLGLNKDVERVSLNLMGCLAGLSSLRTAASLAKASPRNRILVVCTEVCSLHFSNTDGGDQMVASSIFADGSAAYIIGCNPRIEETPLYEVMCSINRSFPNTENAMVWDLEKEGWNLGLDASIPIVIGSGIEAFVDTLLDKAKLQTSTAISAKDCEFLIHTGGKSILMNIENSLGIDPKQTKNTWDVYHAYGNMSSASVIFVMDHARKSKSLPTYSISLAFGPGLAFEGCFLKNVV | soluble
3 | GPVGYGAATTGGGNKVPVNVATFEAMQSAIDSYSGSGGLVLNYTGKFDFGTIKDVCAQWKLPAKTVQIKNKSDVTIKGANGSAANFGIRVVGNAHNVIIQNMTIGLLQGGEDADSISLEGNSSGEPSKIWVDHNTVFASLTKCSGAGDASFDGGIDMKKGVHHVTVSYNYVYNYQKVALNGYSDSDTKNSAARTTYHHNRFENVESRVPLQRFGLSHIYNNYFNNVTTSGINVRMGGIAKIESNYFENIKNPVTSRDSSEIGYWDLINNYVGSGITWGTPDGSKPYANATNWISTKVFPESLGYIYTVTPAAQVKAKVIATAGAGKNLAE | soluble
4 | TNADYPALYLANFLLGTSETSRLWHRVRETEGLSYNVRSNLSVSSYEPSANWTIYAIYAPQNRARLEKAISEELARALKDGFTDQEVRDGVVALLNYRNLARAQDDVLADTWVNYMQTGRSFQWSADMDRKLEALTPDQVNAALRKYLKPDAFSTAVAGDFTKKSAP | not soluble
5 | MGSDKIHHHHHHAQFKKFNLGKAIQAGKDAAQAISLSDADIAAMSKEYMEWMDKHNPLTKPDSEYGKRLERLTGNIKEVDGMKVNFGVYEVVDVNAFACGDGSVRICAGLMDVMTDEEVMAVIGHEIGHVIHTDSKDAMKNAYFRSAVKNAAGAASSQVAKLTDSELGAMAEALAGAQYSQKQEYEADAYGVEFCVKNNIDPYGMYKSLNKLLELSNGAPASSYMQRMFSSHPDTAKRVARAKELADKYKQ | not soluble
6 | MMRITGKHCLRVAILSIQRSGMIHPRNTNGSKAKNVMVADGCVIEGTVENSILSRGVKIGKNAKVKNCILLQDTVIEDGANLEYVITDKNVRVSRNRSLTGNDSFQVYVAKGQTV | not soluble
7 | MSLRVLIVENEIYLAQSIAAKLSDFGFECEIVSLVNEALREQEYDVVLLSTNVSGQNYYPIIEKHKDSIIILMISYVSDDTVSKPLKAGAKDYILKPFMIDELIRKIEHYRTFQKLKKEVQFYRRYLDFALSDFPSSLNQKLTTPFVIKSSTQKSADAYAIAYAKHKDIPLDFLSIKEGFHWRDKLKRALPCREIKYIVGLEELKKSERKELLEIVAKSCVILSFVSSEEGHHHHHH | not soluble
8 | MLLFPRRTNIAFFKTTGIFANFPLLGRTITTSPSFLTHKLSKEVTRASTSPPRPKRIVVAITGATGVALGIRLLQVLKELSVETHLVISKWGAATMKYETDWEPHDVAALATKTYSVRDVSACISSGSFQHDGMIVVPCSMKSLAAIRIGFTEDLITRAADVSIKENRKLLLVTRETPLSSIHLENMLSLCRAGVIIFPPVPAFYTRPKSLHDLLEQSVGRILDCFGIHADTFPRWEGIKSK | soluble
9 | MRGSHHHHHHTDPALRARNRTLADLDRVVALGGGHGLGRVLSSLSSLGSRLTGIVTTTDNGGSTGRIRRSEGGIAWGDMRNCLNQLITEPSVASAMFEYRFGGNGELSGHNLGNLMLKALDHLSVRPLEAINLIRNLLKVDTHLIPMSEHPVDLMAIDDQGHEVYGEVNIDQLTTPIQELLLTPNVPATREAVHAINEADLIIIGPGSFYTSLMPILLLKEIAQALRRTPAPMVYIGNLGRELSLPAANLKLESKLAIMEQYVGKKVIDAVIVGPKVDVSAVKERIVIQEVLEASDIPYRHDRQLLHNALEKALQALGGLCGR | soluble
10 | MSRPPLPPFTRETATQKVRMAEDAWNSRDPARVSLAYTPDSRWRNRAEFLQGRDAIVEFLTRKWAKEHDYRLIKDLWAFDGRFIAVRFQYEWRDEAGLWYRSYGNEQWEFDDDGLMRRREASINDVAISEGDRRFHWPAPGPRPDDVPGLAADPFLEHHHHHH | soluble
11 | ENHEKEWRFNSRITLVRSPIMLGQQTSHGWRDLIFDVSGGGATPAKHVMQYTGVSYPLNPSMAPTATPEQISGVRLFSDGISPVREGVRL | not soluble
12 | IVVLHGLYMHGLVMKPLASRLRRKGHSVQVVSYNSVRINEALLFKRIRNCLSETEKNVIVGHSLGGILAVHFVNSHNDKHTPIDSIVTIGSPLQGASIAKEIQNRKLGFILGNSKEQGLVDVNQLTVDCPIGSIAGTLPIGIRSSIIRDRVPSDGTVTVEETVLPELKDHLCLNYSHTSLIYAKQTVEQIDYFIHHHEFKRV | not soluble
13 | MNRVEPPYDVKEALVFTQKMAQLSKALWKSIEKDWQQWLKPYDLNINEHHILWIAYQLNGASISEIAKFGVMHVSTAFNFSKKLEERGYLRFSKRLNDKRNTYVQLTEEGTEVFWSLLEEFDPTRNAVFKGSQPLYHLFGKFPEVAEMMCMIRHIYGDDFMEIFETSLTNIDNDFESVNGKLKKKAKDSAADEPAEELEPVNS | soluble
14 | GPGSMEGERTMKKNKKGSARGDCDGMISVGAKRLLVSVQDKNRRQKHGEFFDELLLVTQKAKRSPQVINIPGKNEVPVLAVGYIARAMGLNLSNVEVSCLVEMVEEKDLASRGFVPADALKEVIVEALMTGIMAPPKAPVKATPSRKKTASTLPPATIKPISVVRDGEEAIYEAFCVLDLSRRGYLEAEEMRHFLRIGGEPFTEEEVEEFITAAADPENGRIYYEEFADVLARE | soluble
15 | MLKVEKFKKLKRFEVYYCLKNSFLEEVDIEMKYSCSITTIMSNGSASLLMNWEELTPGHCFTSYTTNPIAGDYGLNASAIDGHTEELVATHPAGTLENATQ | not soluble
16 | MGSDKIHHHHHHMSSVHHKIIKHKIGLLNLAAELGNVSRACKVMGFSRDTFYRYQAAVETGGVEALIDANRRKPNIKNRVEEATEAAILAFALEQPAFGQVRVSNELRKRGIFVSPSGVRSVWLRQNLESFKKRLSALEKHIAETGAVLTEAQVQALEKKQEDDVAQGEIETAHPGYLGSQDTFYVGTLKGVGRIYQQTFVDTYSKWAAAKLYTNKTPITSADMLNDRVLPFFAEQSMGIIRILTDRGTEYCGKPENHDYQLYLALNDIEHSKTKANHPQTNGICERFHKTILQEFYQVTFRRKIYQSIEELQHDLDDWMAYYNSVRTHQGKMCCGRTPMQTLIDAKEIWDDKITELNN | not soluble
17 | MSTDTSGVGVREIDAGALPTRYARGWHCLGVAKDYLEGKPHGVEAFGTKLVVFADSHGDLKVLDGYCRHMGGDLSEGTVKGDEVACPFHDWRWGGDGRCKLVPYARRTPRMARTRSWTTDVRSGLLFVWHDHEGNPPDPAVRIPEIPEAASDEWTDWRWNRILIEGSNCRDIIDNVTDMAHFFYIHFGLPTYFKNVFEGHIASQYLHNVGRPDVDDLGTSYGEAHLDSEASYFGPSFMINWLHNRYGNYKSESILINCHYPVTQNSFVLQWGVIVEKPKGMSEEMTDKLSRVFTEGVSKGFLQDVEIWKHKTRIDNPLLVEEDGAVYQLRRWYEQFYVDVADIKPEMVERFEIEVDTKRANEFWNAEVEKNLKSREVSDDVPAEQH | soluble
18 | MGSDKIHHHHHHMKNLFLFCRAGFEKECAAEIQQRAGELNVGGFVKANNNDAYVVYQCFEEDAADTLVKQLPLDSLIFARQMFAASDLLVDLPESDRISPIVAALSDVSKAGEVRVETPDTNEAKELSAFCRKFTVPLRQHLKKSGSLLAQENPKRPIIHVCFIGPGRAYVGYSYSNNSSPHFMGIPRLKMAADAPSRSSLKLDEAFGQFVPKEEQEERIRSGMNAVDLGACPGGWTYQLVRRGMFVSAVDNGPMDEKLMETGQVKHYREDGFRFEPQRKNIYWLVCDMVRPSSL | not soluble
19 | MPHMSEPQRLFFAIDLPAEIREQIIHWRATHFPPEAGRPVAADNLHLTLAFLGEVSAEKEKALSLLAGRIRQPGFTLTLDDAGQWLRSRVVWLGMRQPPRGLIQLANMLRSQAARSGCFQSNRPFHPHITLLRDASEAVTIPPPGFNWSYAVTEFTLYASSFARGRTRYTPLKRWALTQ | not soluble
20 | MNVSFSTPVQNSTASRLALIQQAAARSGALPPAGQYRGSKLSPFDVSQMSGVSISMVERAKINGPEFVEELEWLRQQTTSRCFLDAEMWTNEILAHLPDKWCAPNTLNLYNQVSELVLDNTRSPMASPASNSLYAPGEDQMPTVKRNHTSRFAQSLIKNKEFRRAAFFLEKTMNGNKLDHFLHFRCLFLAYYQEHLENDAEGIERKTSFAEERSPFSLLYQRMEDKKLRENEDVWFEYLMGLLEVELGLKDLAEKSFRNVVIREPRIWPAWEALSRLIADIEDADKFVTSAEVKSLWMGDWFMTLVLQRFHQHSMAIQKAEQLVTRGMTGLPMIITKIAACSNARHDHDQAISNFEDVRKADPYRLGDLHLLSDSLYIRNDQKKLSTLAIEVYKVHKFRWETCCIVANYHAIRRDSEHAIKFFQRALRLNPGLAALWVLIGHEFMEMKNNAAACVSYRRAIEIDPADHRGWYGLGQMYDIMKMPAYALFYYQEAQKCKPHDSRLLVALGDIYSKLNRIEDAEKCFTGAYLFGDVEGNALWSLAKLHERYSDDNKAAQAFEVFLVVYELVTSAEEKIIYAIAFLANHFFKIEDFDKASEYATKCLAFETLCQEGNRLFREIAKIQARESRLPVEEAPGPSNASAAGGQEAMDTEEAPQEGGEEEMSEGEDDFSF | not soluble
21 | VVQGTVKPHASFNSREDAETLRKAMKGIGTDEKSITHILATRSNAQRQQIKTDYTTLFGKHLEDELKSELSGNYEAAALALLRKPDEFLAEQLHAAMKGLGTDKNALIDILCTQSNAQIHAIKAAFKLLYKEDLEKEIISETSGNFQRLLVSMLQGGRKEDEPVNAAHAAEDAAAIYQAGEGQIGTDESRFNAVLATRSYPQLHQIFHEYSKISNKTILQAIENEFSGDIKNGLLAIVKSVENRFAYFAERLHHAMKGLGTSDKTLIRILVSRSEIDLANIKETFQAMYGKSLYEFIADDCSGDYKDLLLQITGH | soluble
22 | MAHHHHHHMRRVVASRKAICEYRLYSQVSPQGYPVTAVTPQQIRRVPFYRHRKLYDLTTRELSEEAIRDFLPPKPAVPAGWSMEHKIGSCRFDLTKTMGADDSAREDLHVVALMEPKKYEQTYRMDNGERNGEEYLVFNLFIKKHQHSGGVEFGLTSIDMELVMDSLVVHSTDREMDYSIGALGPGKTTSVGTSFGQKLNIECRRCRDYRYRGPMLNELDDDLTDEILDYLDERGVNNGFAEYMMAQAHFLEQEEYLNWLRLLKQFAT | not soluble
23 | QVIEVLNKQVADWSVLFTKLHNFHWYVKGPQFFTLHEKFEELYTESATHIDEIAERILAIGGKPVATMKEYLEISSIQEAAYGETAEGMVEAIMKDYEMMLVELKKGMEIAQNSDDEMTSDLLLGIYTELEKHAWMLRAFLN | soluble
